Measured values published in patent US20240254192A1.

Assays:
[1] = target: tBCMA [BCMA extracellular domain - PDL1 hinge & TM plus Trop2 cytoplasmic domain]; assay: cell-based or functional assay
[2] = target: CD30 expressed on primary T cells transduced with BCL6 and BCL2L1 (Homo sapiens (Human)) (UniProt P28908); assay: cell-based or functional assay
Chain of CD30 expressed on primary T cells transduced with BCL6 and BCL2L1 (Homo sapiens (Human)) (P28908 19-595 limits assumed): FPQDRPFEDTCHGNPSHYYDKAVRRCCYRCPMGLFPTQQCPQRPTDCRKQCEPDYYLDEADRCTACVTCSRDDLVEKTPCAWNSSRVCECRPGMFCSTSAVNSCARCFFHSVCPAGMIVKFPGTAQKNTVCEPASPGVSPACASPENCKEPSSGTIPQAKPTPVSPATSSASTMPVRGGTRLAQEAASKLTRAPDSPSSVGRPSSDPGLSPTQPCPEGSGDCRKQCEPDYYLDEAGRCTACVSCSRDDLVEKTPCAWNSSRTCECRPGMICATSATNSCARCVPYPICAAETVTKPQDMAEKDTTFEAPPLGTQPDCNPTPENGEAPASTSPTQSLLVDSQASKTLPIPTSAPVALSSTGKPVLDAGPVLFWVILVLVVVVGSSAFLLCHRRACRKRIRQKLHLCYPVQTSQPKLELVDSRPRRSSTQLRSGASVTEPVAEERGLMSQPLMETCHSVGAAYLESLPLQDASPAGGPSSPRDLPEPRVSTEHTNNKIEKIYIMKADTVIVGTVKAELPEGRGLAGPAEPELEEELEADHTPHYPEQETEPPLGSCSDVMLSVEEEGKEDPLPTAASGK

Chain of tBCMA [BCMA extracellular domain - PDL1 hinge & TM plus Trop2 cytoplasmic domain] (chain, as listed by the source limits assumed, form in doubt): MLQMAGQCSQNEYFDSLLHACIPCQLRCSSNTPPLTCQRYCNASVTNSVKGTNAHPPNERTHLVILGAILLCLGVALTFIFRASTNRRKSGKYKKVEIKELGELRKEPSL

| percent change in live cell number (day 2) [1] | percent change in live cell number [2] | Substance |
| --- | --- | --- |
| < 80% | – | belantamab mafodotin (antibody) |
| – | < 95% | brentuximab vedotin (antibody) |
